From patent publication US20250154517A1

Molecular target: NpuDnaE(C)_Hyg^R (90-341) (Nostoc punctiforme; Escherichia coli)
Test: cell-based or functional assay

- rooting of co-transformed poplar shoots on root induction medium supplied with Hygromycin: 80%
Substance: Hyg^R(1-89)-NpuDnaE(N)
